The text below walks through data of US20120231065A1.

The experiment addresses GCSF receptor (rat, endogenous, on neurons / in cortex tissue) (rat) (UniProt D4A3R0). The experiment is described as follows: cell-based or functional assay.
Sequence of UniProt D4A3R0 (D4A3R0 entry or part of it limits assumed, form in doubt): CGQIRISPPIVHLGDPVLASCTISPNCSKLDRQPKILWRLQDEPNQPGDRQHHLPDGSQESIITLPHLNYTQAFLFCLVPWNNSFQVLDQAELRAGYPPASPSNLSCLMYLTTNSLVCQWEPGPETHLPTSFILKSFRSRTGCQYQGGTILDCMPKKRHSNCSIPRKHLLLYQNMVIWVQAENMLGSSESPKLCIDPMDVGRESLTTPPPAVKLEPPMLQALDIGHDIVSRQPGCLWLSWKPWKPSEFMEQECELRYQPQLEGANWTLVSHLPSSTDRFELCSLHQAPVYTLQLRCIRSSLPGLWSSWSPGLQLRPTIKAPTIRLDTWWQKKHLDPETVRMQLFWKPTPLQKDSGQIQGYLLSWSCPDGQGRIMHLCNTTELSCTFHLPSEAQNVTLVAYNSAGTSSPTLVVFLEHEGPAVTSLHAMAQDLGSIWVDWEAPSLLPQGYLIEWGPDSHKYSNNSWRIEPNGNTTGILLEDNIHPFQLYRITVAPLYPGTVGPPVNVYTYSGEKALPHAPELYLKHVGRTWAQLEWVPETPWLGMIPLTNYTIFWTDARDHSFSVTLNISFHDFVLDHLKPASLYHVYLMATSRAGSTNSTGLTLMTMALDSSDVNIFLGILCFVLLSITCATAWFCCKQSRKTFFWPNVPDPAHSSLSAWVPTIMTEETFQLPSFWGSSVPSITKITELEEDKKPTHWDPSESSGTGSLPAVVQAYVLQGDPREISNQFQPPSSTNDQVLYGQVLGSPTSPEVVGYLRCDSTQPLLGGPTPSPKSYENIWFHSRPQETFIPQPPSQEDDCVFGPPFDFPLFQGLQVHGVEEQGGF

As for “recombinant human GCSF, Neupogen (Amgen) (from UniProt P09919 31-207) (ligand)”, the STAT3 nuclear translocation in neurons of the penumbra, percent of STAT3 positive neurons from all neurons (GCSF treated rats versus untreated controls) (percent of STAT3 positive neurons) was determined as 34.4.
